Columns and labels:
[1] = target: mKO-^MalFNTPBP2 (E. coli); test: FRET or BRET; three-plasmid FRET in LMC500 cells; third plasmid expresses non-fused MreC
[2] = target: mKO-^MalFNTPBP2 (E. coli); test: FRET or BRET; three-plasmid FRET in LMC500 cells; third plasmid: empty pSG4K5 vector
[3] = target: mKO-^MalFNTPBP2 (E. coli); test: FRET or BRET; two-plasmid spectral FRET in E. coli LMC500 cells; mCherry fusion as acceptor, mKO fusion as donor; Gb4 medium, steady state at 28 C, 15 uM IPTG for two mass doublings, FAGA-fixed; acceptor FRET efficiency (EfA) by spectral unmixing
[4] = target: mKO-^MalFNTPBP2 (E. coli); test: FRET or BRET; three-plasmid FRET in LMC500 cells; third plasmid expresses non-fused MreCD
[5] = target: mKO-^MalFNTPBP2 (E. coli); test: FRET or BRET; as the two-plasmid FRET, cells treated with mecillinam (2 mg/L) for two mass doublings
[6] = target: mKO-^MalFNTPBP2 (E. coli); test: FRET or BRET; two-plasmid FRET in LMC500 cells; mCherry-MreC and non-fused MreD co-expressed from one plasmid (mCh-MreCD), mKO fusion as donor

Substance | EfA (acceptor FRET efficiency) [1] | EfA (acceptor FRET efficiency) [2] | EfA (acceptor FRET efficiency) [3] | EfA (acceptor FRET efficiency) [4] | EfA (acceptor FRET efficiency) [5] | EfA (acceptor FRET efficiency) [6]
PBP2 (wild type), fused to mKO or to mCherry (from UniProt P0AD65 1-633) (enzyme) | 9.8% | 9.4% | 10.5% | 8.7% |  | 
RodA (wild type), fused to mCherry or to mKO (from UniProt P0ABG7 1-370) (enzyme) | 4.2% | 7.6% | 11.8% | 5.5% | 6.2% | 
mCh-MreC (from UniProt P16926 1-367) (natural protein) |  |  | 5.4% |  |  | 5.4%

Source: paper PMC7793260
